# In article PMC4148842:
# Columns and labels:
# [1] = molecular target: peptide II-44I; test: solid-phase binding assay (SPBA); details: read off a plot
# [2] = molecular target: peptide II-44C; test: solid-phase binding assay (SPBA); details: read off a plot
# [3] = molecular target: peptide II-44B; test: solid-phase binding assay (SPBA); details: read off a plot
# [4] = molecular target: peptide II-44G; test: solid-phase binding assay (SPBA); details: parent: est. 0.10; read off a plot
# [5] = molecular target: peptide II-44E; test: solid-phase binding assay (SPBA); details: read off a plot
# [6] = molecular target: peptide II-44A; test: solid-phase binding assay (SPBA); details: read off a plot
# [7] = molecular target: peptide II-44F; test: solid-phase binding assay (SPBA); details: read off a plot
# [8] = molecular target: Toolkit peptide II-44; test: ELISA; solid-phase binding assay (SPBA), Fig. 1: Toolkit II peptides, fibrillar type I collagen or GPP10 coated at 10 μg/ml on Immulon 2 HB wells; MMP preparation or Hpx at 83 nM in TBS with 1 mg/ml BSA and 0.1% Tween-20, 1 h at 24 °C; detected with an antibody to the MMP-13 hinge region (Hpx: anti-GST), A450
# [9] = molecular target: peptide II-44J; test: ELISA; SPBA on truncated and Ala-substituted II-44 variant peptides, carried out as for Fig. 1 (Fig. 4)
# [10] = molecular target: Toolkit peptide II-17; test: ELISA; solid-phase binding assay (SPBA), Fig. 1: Toolkit II peptides, fibrillar type I collagen or GPP10 coated at 10 μg/ml on Immulon 2 HB wells; MMP preparation or Hpx at 83 nM in TBS with 1 mg/ml BSA and 0.1% Tween-20, 1 h at 24 °C; detected with an antibody to the MMP-13 hinge region (Hpx: anti-GST), A450
# [11] = molecular target: Toolkit peptide II-56; test: as above
# [12] = molecular target: Toolkit peptide II-21; test: as above
# [13] = molecular target: Toolkit peptide II-28; test: as above
# [14] = molecular target: Toolkit peptide II-54; test: as above
# [15] = molecular target: Toolkit peptide II-49; test: as above
# [16] = molecular target: Toolkit peptide II-45; test: as above
# [17] = molecular target: Toolkit peptide II-55; test: as above
# [18] = molecular target: Toolkit peptide II-51; test: as above
# [19] = molecular target: Toolkit peptide II-52; test: as above
# [20] = molecular target: Toolkit peptide II-13; test: as above
# [21] = molecular target: Toolkit peptide II-53; test: as above
# [22] = molecular target: Toolkit peptide II-50; test: as above
# [23] = molecular target: Toolkit peptide II-24; test: as above
# [24] = molecular target: Fibrous bovine type I collagen (bovine) (UniProt P02453); test: ELISA; SPBA, increasing concentrations of MMP-13 or MMP-13(E204A) on wells coated with fibrillar or monomeric type I collagen (10 μg/ml); KD from fitted curves (Fig. 3)
# Chain of Fibrous bovine type I collagen (bovine) (P02453 162-1217, chain 1 of 2): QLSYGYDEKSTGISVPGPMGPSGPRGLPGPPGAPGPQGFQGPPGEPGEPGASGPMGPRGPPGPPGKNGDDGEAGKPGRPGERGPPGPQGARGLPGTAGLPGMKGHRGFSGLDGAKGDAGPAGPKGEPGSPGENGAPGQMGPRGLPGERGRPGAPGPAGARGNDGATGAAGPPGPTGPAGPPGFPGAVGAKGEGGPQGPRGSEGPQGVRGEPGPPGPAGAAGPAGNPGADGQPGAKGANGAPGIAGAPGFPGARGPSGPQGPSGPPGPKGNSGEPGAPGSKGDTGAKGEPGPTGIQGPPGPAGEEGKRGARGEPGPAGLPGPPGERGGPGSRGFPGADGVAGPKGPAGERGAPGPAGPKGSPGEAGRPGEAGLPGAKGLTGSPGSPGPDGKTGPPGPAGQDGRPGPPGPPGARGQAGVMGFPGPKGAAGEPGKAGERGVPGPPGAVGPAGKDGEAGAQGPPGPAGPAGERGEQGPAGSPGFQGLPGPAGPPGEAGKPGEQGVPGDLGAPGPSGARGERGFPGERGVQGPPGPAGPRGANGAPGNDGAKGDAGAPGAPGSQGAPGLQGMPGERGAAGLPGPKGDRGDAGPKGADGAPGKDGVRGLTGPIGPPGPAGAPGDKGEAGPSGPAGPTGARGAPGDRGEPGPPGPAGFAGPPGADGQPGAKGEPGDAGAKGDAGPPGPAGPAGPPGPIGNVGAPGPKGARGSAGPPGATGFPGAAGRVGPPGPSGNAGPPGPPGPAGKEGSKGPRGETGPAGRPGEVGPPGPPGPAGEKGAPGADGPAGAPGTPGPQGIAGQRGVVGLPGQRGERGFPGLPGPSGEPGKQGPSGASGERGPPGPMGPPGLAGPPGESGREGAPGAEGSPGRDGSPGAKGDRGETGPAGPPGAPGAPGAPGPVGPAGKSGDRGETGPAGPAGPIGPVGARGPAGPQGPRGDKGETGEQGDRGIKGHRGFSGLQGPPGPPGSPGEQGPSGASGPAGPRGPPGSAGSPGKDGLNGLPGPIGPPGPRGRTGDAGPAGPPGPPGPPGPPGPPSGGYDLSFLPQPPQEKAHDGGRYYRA
# Chain of Fibrous bovine type I collagen (bovine) (P02465 80-1117, chain 2 of 2, further chain): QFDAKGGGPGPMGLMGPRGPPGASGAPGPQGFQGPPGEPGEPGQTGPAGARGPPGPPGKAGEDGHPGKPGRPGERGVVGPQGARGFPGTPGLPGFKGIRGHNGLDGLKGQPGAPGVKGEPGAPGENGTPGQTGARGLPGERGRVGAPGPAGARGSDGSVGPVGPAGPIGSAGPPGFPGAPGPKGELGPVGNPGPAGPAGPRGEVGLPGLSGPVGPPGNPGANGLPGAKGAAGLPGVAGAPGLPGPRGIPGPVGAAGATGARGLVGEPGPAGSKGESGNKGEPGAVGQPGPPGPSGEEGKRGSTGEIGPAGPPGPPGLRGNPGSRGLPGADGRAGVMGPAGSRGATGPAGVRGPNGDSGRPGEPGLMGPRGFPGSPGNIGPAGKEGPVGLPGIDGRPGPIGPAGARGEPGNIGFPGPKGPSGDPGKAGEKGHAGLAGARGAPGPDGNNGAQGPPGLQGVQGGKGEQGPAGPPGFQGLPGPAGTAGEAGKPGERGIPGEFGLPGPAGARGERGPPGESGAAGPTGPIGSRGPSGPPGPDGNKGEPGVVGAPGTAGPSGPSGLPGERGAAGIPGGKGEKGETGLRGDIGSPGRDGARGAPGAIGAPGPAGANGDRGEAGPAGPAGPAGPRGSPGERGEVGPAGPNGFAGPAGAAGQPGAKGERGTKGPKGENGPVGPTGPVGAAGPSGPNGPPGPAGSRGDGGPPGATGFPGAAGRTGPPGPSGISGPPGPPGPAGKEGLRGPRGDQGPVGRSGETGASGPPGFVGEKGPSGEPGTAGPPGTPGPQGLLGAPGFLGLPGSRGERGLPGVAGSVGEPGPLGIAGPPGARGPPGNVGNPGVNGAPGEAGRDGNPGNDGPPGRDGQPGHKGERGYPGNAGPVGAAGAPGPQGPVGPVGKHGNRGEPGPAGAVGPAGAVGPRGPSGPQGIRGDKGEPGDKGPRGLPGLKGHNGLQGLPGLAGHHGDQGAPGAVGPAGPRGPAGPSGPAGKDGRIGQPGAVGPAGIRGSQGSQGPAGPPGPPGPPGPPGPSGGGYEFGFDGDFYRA
# [25] = molecular target: Monomeric collagen (type I) (UniProt P02453); test: as above
# Chain of Monomeric collagen (type I) (P02453 162-1217, chain 1 of 2): as the sequence (P02453 162-1217, chain 1 of 2) above
# Chain of Monomeric collagen (type I) (P02465 80-1117, chain 2 of 2, further chain): as the sequence (P02465 80-1117, chain 2 of 2, further chain) above
# [26] = molecular target: Fibrous bovine type I collagen (bovine) (UniProt P02453); test: ELISA; solid-phase binding assay (SPBA), Fig. 1: Toolkit II peptides, fibrillar type I collagen or GPP10 coated at 10 μg/ml on Immulon 2 HB wells; MMP preparation or Hpx at 83 nM in TBS with 1 mg/ml BSA and 0.1% Tween-20, 1 h at 24 °C; detected with an antibody to the MMP-13 hinge region (Hpx: anti-GST), A450
# [27] = molecular target: peptide II-44J; test: solid-phase binding assay (SPBA); details: parent: est. 0.26; read off a plot
# [28] = molecular target: peptide II-44H; test: solid-phase binding assay (SPBA); details: parent: est. 0.31; read off a plot
# [29] = molecular target: peptide II-44D; test: solid-phase binding assay (SPBA); details: parent: est. 0.19; read off a plot
substance,measurement,setting,value
MMP-13 (from UniProt P45452) E204A,response,[1]; parent: est. 0.20,1.1 A450
same,response,[2]; parent: est. 0.18,0.87 A450
same,response,[3]; parent: est. 0.09,0.15 A450
same,response,[4],0.57 A450
same,response,[5]; parent: est. 0.16,0.95 A450
same,response,[6]; parent: est. 0.19,1.1 A450
same,response,[7]; parent: est. 0.08,0.57 A450
MMP-13 GST-Hpx domain (domain or fragment),A450,[8],0.8 A450
same,A450,[9],0.4 A450
MMP-13(E204A) (enzyme),A450,[10],> 0.3 A450
same,A450,[11],> 0.3 A450
same,A450,[12],> 0.3 A450
same,A450,[13],< 0.2 A450
same,A450,[14],> 0.3 A450
same,A450,[15],> 0.3 A450
same,A450,[16],> 0.3 A450
same,A450,[17],> 0.3 A450
same,A450,[18],> 0.3 A450
same,A450,[19],> 0.3 A450
same,A450,[20],> 0.3 A450
same,A450,[8],> 1.2 A450
same,A450,[21],> 0.3 A450
same,A450,[22],> 0.3 A450
same,A450,[23],< 0.2 A450
same,Kd,[24],0.052 µM
same,Kd,[25],0.026 µM
same,A450,[9],0.8 A450
proMMP-13 (from UniProt P45452 20-471) (enzyme),A450,[26],> 1 A450
proMMP-13 (from UniProt P45452) E204A,response,[27],0.29 A450
same,response,[28],0.29 A450
same,response,[29],0.15 A450
same,response,[1]; parent: est. 0.41,0.36 A450
same,response,[2]; parent: est. 0.24,0.23 A450
same,response,[3]; parent: est. 0.08,0.08 A450
same,response,[5]; parent: est. 0.33,0.31 A450
same,response,[6]; parent: est. 0.41,0.41 A450
same,response,[7]; parent: est. 0.09,0.12 A450
